This series deals with the molecule itself. In words: SEC; HiLoad Superdex 200 HR column (1.6 x 60 cm), 20 mM Na-HEPES, 200 mM NaCl, pH 7.0, 0.7 mL/min, 4 °C; preparative isolation of the oligomeric form after affinity purification.

B1: MBP-FXa-hPAH-RD^1–120 (N-terminal regulatory domain of human phenylalanine hydroxylase fused to maltose binding protein) (domain or fragment, UniProt P00439 1-120, looked up)
chain: MSTAVLENPGLGRKLSDFGQETSYIEDNCNQNGAISLIFSLKEEVGALAKVLRLFEENDVNLTHIESRPSRLKKDEYEFFTHLDKRSLPALTNIIKILRHDIGATVHELSRDKKKDTVPW
notes: human phenylalanine hydroxylase, N-terminal regulatory domain, amino acids 1-120; The fusion is about 53 kDa; also called MBP-FXa-hPAH-RD^1–120 fusion protein; dimeric MBP-FXa-hPAH-RD^1–120; source: E. coli TB1, purified (amylose resin, then SEC to isolate dimers); not shown: MBP, N-terminal, kept
Broadly, the stoichiometry N is a count of units in the complex or per binding partner. For B1, the “stoichiometry N” value stood at 2.

B2: Recombinant full-length wild-type human phenylalanine hydroxylase (enzyme, UniProt P00439 1-452, looked up)
chain: MSTAVLENPGLGRKLSDFGQETSYIEDNCNQNGAISLIFSLKEEVGALAKVLRLFEENDVNLTHIESRPSRLKKDEYEFFTHLDKRSLPALTNIIKILRHDIGATVHELSRDKKKDTVPWFPRTIQELDRFANQILSYGAELDADHPGFKDPVYRARRKQFADIAYNYRHGQPIPRVEYMEEEKKTWGTVFKTLKSLYKTHACYEYNHIFPLLEKYCGFHEDNIPQLEDVSQFLQTCTGFRLRPVAGLLSSRDFLGGLAFRVFHCTQYIRHGSKPMYTPEPDICHELLGHVPLFSDRSFAQFSQEIGLASLGAPDEYIEKLATIYWFTVEFGLCKQGDSIKAYGAGLLSSFGELQYCLSEKPKLLPLELEKTAIQNYTVTEFQPLYYVAESFNDAKEKVRNFAATIPRPFSVRYDPYTQRIEVLDNTQQLKILADSINSEIGILCSALQKIK
notes: human phenylalanine hydroxylase (hPAH; EC 1.14.16.1), full-length wild type, expressed in fusion with a hexa-histidyl peptide; It gives a subunit mass of 55 kDa and an expected tetramer mass of 223 kDa; Non-heme iron sits in the catalytic site; also called hPAH; PAH; source: E. coli Top10, purified (IMAC on Ni-NTA agarose, then SEC to isolate tetramers)
Consider B2, for which the “stoichiometry N” value turned out to be 4.

For the origin of these results see paper PMC8003416, “Modulation of Human Phenylalanine Hydroxylase by 3-Hydroxyquinolin-2(1H)-One Derivatives” (Biomolecules, 2021).
